The text below walks through data of patent publication US20130022592A1, “Continuous subcutaneous insulin infusion methods with a hyaluronan-degrading enzyme” (priority 2011, published 2013).

“Also recorded” adds a separate entry of the source. Where two headings read alike, the source gives them in different places.

The conditions of series [1]: cited from earlier work.
The conditions of series [2]: in vivo.
Description: (§1) The study was continued to include 15 subjects who completed the study protocol, and was further continued to include 17 subjects who completed the study protocol. The subjects were confined to an inpatient setting for three days of study.
Adverse events were assessed during the course or infusion treatment.
Series [3] can be described thus: Blood glucose response to standardized evening meal (Example 3). The series is classed as in vivo, human. Particulars: with vs without rHuPH20.
Excerpt: as §1
A short description of series [4]: Adverse events (Example 4). The settings on record: eleven evaluable subjects. Type of series: in vivo, human. The source says: 4. […] All were mild and resolved without sequaelae. The most common event was headache (n=4).
Series [5] is described as follows: Glucodynamics in euglycemic clamps, rapid acting insulin analog CSII with rHuPH20 or sham injection (Example 4). The series is classed as in vivo, human.
Excerpt: Patients with type 1 diabetes participated in a randomized, double-blind, 2-way crossover design clinical study comparing the administration of a single hyaluronidase injection at each infusion set change to sham injections in a CSII therapy. The study compared euglycemic clamp endpoints at the beginning and end of 3 days of continuous infusion and glycemic response to a series of four breakfast solid meal challenges. […] In addition, continuous glucose monitoring of the three subjects to compare glucose control in routine outpatient diabetes care also was assessed.
Subjects were released from the CRU the same day.
Subjects returned 3 days later for a second euglycemic clamp after 3 days of continuous infusion. After the clamp experiment the infusion set was changed and the patients discharged. […] Subjects returned to the CRU approximately every 3 days to receive a new infusion set and receive a patient specific standardized breakfast meal and insulin bolus.
(§2) The insulin action profile as a function of time, or glucodynamics, was measured by determining the rate of glucose infusion necessary to maintain euglycemia following the bolus insulin infusion.
A short description of series [6]: Routine diabetes management, continuous glucose monitoring (Example 4). The series is classed as in vivo, human. Particulars: three patients; rHuPH20 preadministration. The procedure:
The results are depicted below for the first three subjects that completed the study. In addition, continuous glucose monitoring of the three subjects to compare glucose control in routine outpatient diabetes care also was assessed. […] After the clamp experiment the infusion set was changed and the patients discharged. […] To maintain the double-blind study design, a trained professional not otherwise involved in the study administered either rHuPH20 or a sham injection while the patient looked away. After completion of the phase, patients returned to the CRU within 21 days to repeat these steps with the alternate treatment.

Series [7] is described as follows: Glucodynamics in euglycemic clamps, NovoLog CSII with or without rHuPH20 pretreatment (Example 3). Particulars: for faster onset of action with rHuPH20 pretreatment / shorter duration of action with rHuPH20 pretreatment: vs without rHuPH20. The series is classed as in vivo, human.
Description: The subjects were confined to an inpatient setting for three days of study.
Approximately 2 hours after insertion of the new insulin infusion catheter set, a euglycemic glucose clamp experiment was conducted (1′ clamp). […] Blood glucose was clamped at 90% of the fasting level to suppress endogenous insulin release during the study. A 0.15 U/kg bolus was administered through the insulin pump; and the usual individual basal rate was continued during clamps and PK results are thus baseline-subtracted.
During the euglycemic glucose clamp experiment, the subjects were followed for six (6) hours during which blood was drawn and free insulin levels and glucose infusion rates required to maintain euglycemia were determined.
In each experiment, the subjects were followed for six (6) hours during which blood was drawn and free insulin levels and glucose infusion rates required to maintain euglycemia were determined as described above.
as §2

On to Regular Insulin, for which the Duration in series [1] (Table 2, Types of Insulins) is 5 to 8 h. In addition, the onset of action in series [1] (administered subcutaneously alone) was 30 min.
As to insulin glargine, in series [1] (Table 2, Types of Insulins), the Duration is 28 h, the Onset is 4 to 6 h and the Peak is 18 to 28 h.
Consider insulin lispro, for which, in series [1] (Table 2, Types of Insulins), the Duration is 3 to 4 h, the Onset is 0.083 to 0.25 h and the Peak was 0.75 to 1.5 h.
For the molecule Lente, in series [1] (in vivo), the Peak is 6 to 12 h.
With “detemir: long-lasting insulin (an analog)”, in series [1] (Table 2, Types of Insulins), the Duration is 28 h, the Onset is 4 to 6 h and the Peak is 18 to 28 h.

B1: rHuPH20: soluble recombinant human PH20 hyaluronidase expressed in CHO cells from nucleic acid encoding amino acids 36-482 of SEQ ID NO:1; mixture of SEQ ID NOS:4-9 (protein, listed as Homo sapiens)
chain: LNFRAPPVIPNVPFLWAWNAPSEFCLGKFDEPLDMSLFSFIGSPRINATGQGVTIFYVDRLGYYPYIDSITGVTVNGGIPQKISLQDHLDKAKKDITFYMPVDNLGMAVIDWEEWRPTWARNWKPKDVYKNRSIELVQQQNVQLSLTEATEKAKQEFEKAGKDFLVETIKLGKLLRPNHLWGYYLFPDCYNHHYKKPGYNGSCFNVEIKRNDDLSWLWNESTALYPSIYLNTQQSPVAATLYVRNRVREAIRVSKIPDAKSPLPVFAYTRIVFTDQVLKFLSQDELVYTFGETVALGASGIVIWGTLSIMRSMKSCLLLDNYMETILNPYIINVTLAAKMCSQVLCQEQGVCIRKNWNSSDYLHLNPDNFAIQLEKGGKFTVRGKPTLEDLEQFSEKFYCSCYSTLSCKEKADVKDTDAVDVCIADGVCIDAFLKPPMETEEPQIFY
modifications: mixture of SEQ ID NOS:4-9; precursor human PH20
For B1, the “subjects with adverse events related to CSII infusion sites (in words)” value in series [2] is reported as “two subjects”. Besides, the “reduction in 2 hour glycemic excursion” value was found to be 21 mg/dL in series [3] (15 completers) and 19 mg/dL in series [3] (17 completers). The “Potential local site reactions (in words)” value in series [4] is “an abdominal bruise; also recorded: pain at the infusion site; also recorded: a stinging sensation during infusion”. Besides, in series [5] (Example 4, rHuPH20 pretreatment), the “differences in onset or duration of action over three days of continuous infusion (in words)” value is “no significant differences”. Besides, the “faster onset of action with rHuPH20 pretreatment” value is 21 min in series [5] (vs without rHuPH20), 9 min in series [7] (15 completers) and 9 min in series [7] (17 completers). Also, the entries for the “shorter duration of action with rHuPH20 pretreatment” value in series [5] (vs without rHuPH20), in series [7] (15 completers) and in series [7] (17 completers) were 30 min, 27 min and 27 min, respectively. For the same molecule, in series [6], the “outpatient glucose control (in words)” value is on record as “tighter glucose control”. In addition, in series [7] (Example 3, rHuPH20 pretreatment), the “differences in early insulin exposure, onset or duration of action over three days of continuous infusion (in words)” value is “no significant differences”.
